Where two headings read alike, the source gives them in different places.
What was measured:
Assay in all cases: AUC; sedimentation velocity, interference optics; 40 uM protein in 25 mM TES, 100 mM NaCl, 100 uM EDTA, pH 7.4; apo samples and samples with 250 uM Cu2+ and Ca2+; no reducing agent; c(s) distribution by SedFit; self-association (monomer, dimer, higher oligomers)
[1] = biological target: human S100A5, wildtype (human) (UniProt P33763)
[2] = biological target: human S100A5, wildtype (human) (UniProt P33763); remark: listed apart in the source
[3] = biological target: human S100A5 C43S/C79S, Cysteine-free variant (human) (UniProt P33763)

stoichiometry N [1]	stoichiometry N [2]	stoichiometry N [3]	Substance
> 12	2		human S100A5, wildtype (from UniProt P33763 1-92) (natural protein)
		2	human S100A5 C43S/C79S, Cysteine-free variant (from UniProt P33763 1-92) (natural protein)

— article PMC5700546
